Laboratory results from US8710181B2, “Use of tris(hydroxymethyl) aminomethane for the stabilization of peptides, polypeptides and proteins” (Novo Nordisk A/S, priority 2004, dated 2014).

Key:
Format in all cases: physicochemical
[1] = Room temperature stability of Arg34-GLP-1[7-37] loading solution and column eluate with TRIS, monitored by RP-HPLC (Example 1); conditions: for Arg34-GLP-1[7-37] eluate concentration: 10 mM Tris pH 9.2, RP-HPLC; for Arg34-GLP-1[7-37] concentration in loading solution: 10 mM TRIS, pH adjusted to 3.2, RP-HPLC
Protocol: An aqueous solution of Arg34-GLP-1[7-37] containing approximately 2% by weight ethanol and 10 mM of tris(hydroxymethyl)aminomethane, at pH 9.2 was made at room temperature, pH was adjusted to 3.2. The room temperature stability of the solution was monitored by RP-HPLC.
The solution was loaded on an ion-exchange column, Source 30S, Amersham Bioscience, at pH 3.23 and after washing the column with an acid buffer containing ethanol and citric acid, the product was eluted with an aqueous solution containing 10 mM Tris at pH 9.2. The room temperature stability of the eluate from the column was monitored by RP-HPLC (Table 1)/(FIG. 1).

[2] = Comparative room temperature stability with glycine instead of TRIS, monitored by RP-HPLC (Comparative Example 1)
Protocol: A comparative test with 20-200 mM glycine instead of tris(hydroxymethyl)aminomethane was done.
An aqueous solution of Arg34-GLP-1[7-37] containing approximately 2% by weight ethanol and 20 mM of glycine, at pH 9.0 was made at room temperature, pH was adjusted to approximately 3.3.
The solution was loaded to an ion-exchange column, Source 30S, Amersham Bioscience, at pH 3.3 and after wash of the column with an acid buffer containing ethanol and citric acid, the product was eluted with an aqueous solution containing 200 mM Glycine at pH 9.5. The stability of the eluate from the column was monitored by RP-HPLC at room temperature for 5 days.

[3] = Repeated preparative runs on Source 30S column 20 cm I.D. with TRIS: pressure and fibrillation (Example 2)
Protocol: (§1) Gelation/fibrillation/aggregation can be estimated by the Thioflavin T test […] resulting in a colored response the degree of gelation. Another result would be increased viscosity of the gelated solution resulting in increasing back pressure on chromatographic columns during multiple runs—this is usually the first indication of gelation taking place, […].
(§2) An aqueous solution of Arg34-GLP-1[7-37] containing approximately 2% by weight ethanol and 10 mM of tris(hydroxymethyl)aminomethane, at pH 9.2 was made at room temperature by dissolution of an Arg34-GLP-1[7-37] isoelectric precipitate directly in the solution. Subsequently, pH was adjusted to 3.2.
A preparative aliquot of the solution was loaded on a large scale ion-exchange column, 20 cm I.D. (internal diameter), Source 30S, Amersham Bioscience, at pH 3.3 and after washing the column with an acid buffer containing ethanol and citric acid to remove impurities, the product was eluted with an aqueous solution containing 10 mM Tris at pH 9.2. The column was regenerated with 1 M NaOH, equilibrated with the acidic wash buffer, and the column was loaded again with loading solution. Eluate from the Source 30S column was automatically pH adjusted with 100 mM tris buffer pH 7.4 to pH 8.0.

[4] = Repeated runs on Source 30S column 45 cm i.d. with TRIS: pressure, analysis of column material for aggregated/fibrillated proteins (Example 4); conditions: after 283 runs on Source 30S column, 10 mM Tris
Protocol: as §1
An aqueous solution of Arg34-GLP-1[7-37] containing approximately 2% by weight ethanol and 10 mM of tris(hydroxymethyl)aminomethane, at pH 9.2 was made at room temperature, pH was adjusted to 3.2.
Aliquot of the solution was loaded to an ion-exchange column, 45 cm i.d., Source 30S, Amersham Bioscience, at pH 3.3 and after wash of the column with an acid buffer containing ethanol and citric acid, the product was eluted with an aqueous solution containing 10 mM Tris at pH 9.2. The column was regenerated and loaded again with loading solution.

[5] = Repeated preparative runs on Source 30Q and RP-HPLC C-18 columns with TRIS: pressure and fibrillation (Example 3)
Description: as §1
as §2, with “N^ε-hexadecanoyl-γ-glutamyl-Lys26-Arg34-GLP-1[7-37]” for “Arg34-GLP-1[7-37]”, “solution.” for “solution. Subsequently, pH was adjusted to 3.2.”
A preparative aliquot of the solution was loaded on a large scale ion-exchange column, 45 cm I.D. (internal diameter), Source 30Q, Amersham Bioscience, at pH 9.2 and after washing the column with an buffer containing 20 mM tris and 63% by weight ethanol (pH 7.5) to remove impurities, the product was eluted by a sodium chloride gradient at pH 7.5 in a 20 mM tris buffer containing 63% by weight ethanol. The column was regenerated with 1 M NaOH, equilibrated with the pH 7.5 wash buffer, and the column was loaded again with loading solution. Eluate from the Source 30Q column was automatically diluted with water before it was loaded on another large scale column, RP-HPLC column 100 Å C-18, particle diameter 15 μm, column I.D. 45 cm, and eluted with a buffer solution containing 20 mM tris, 125 mM sodium chloride and approx. 45% by weight ethanol at pH 6.9. The column was regenerated with a 70% ethanol solution and subsequently equilibrated with a 25% ethanol solution containing 20 mM Tris.

[6] = Repeated runs on Source 30Q and RP-HPLC columns with TRIS: pressure, analysis of column material for aggregated/fibrillated proteins (Example 5); conditions: 20 mM tris
Description: as §1
An aqueous solution of N^ε-hexadecanoyl-γ-glutamyl-Lys26-Arg34-GLP-1[7-37] containing approximately 2% by weight ethanol and 10 mM of tris(hydroxymethyl)aminomethane, at pH 9.2 was made at room temperature. Aliquot of the solution was loaded to an ion-exchange column, 45 cm i.d., Source 30Q, Amersham Bioscience, at pH 9.2 and after wash of the column with an neutral buffer containing 20 mM tris and 63% by weight ethanol (pH 7.5), the product was eluted by an sodium chloride gradient at pH 7.5 in a 20 mM tris buffer containing 63% by weight ethanol. The column was regenerated and loaded again with loading solution. One eluate from the Source 30Q column was automatically diluted with water before it was applied to an other column, RP-HPLC column 100 Å C-18, particle diameter i.d. 15 μm, column i.d. 45 cm, and eluted with a buffer containing 20 mM tris, 125 mM sodium chloride and approx. 45% by weight ethanol at pH 6.9.

[7] = after 60 runs on Source 30S column, 20 cm I.D., 10 mM Tris
[8] = after 60 runs on both Source 30Q column and RP-HPLC column, tris buffers with ethanol
[9] = after 77 runs on Source 30Q column, 63% ethanol

## Arg34-GLP-1[7-37]
[1]; Day 0, Source 30S eluate
  Arg34-GLP-1[7-37] eluate concentration: 1.4 mg/mL
[1]; Day 0, approx. 2% ethanol
  Arg34-GLP-1[7-37] concentration in loading solution: 1.7 mg/mL
[1]; Day 1, Source 30S eluate
  Arg34-GLP-1[7-37] eluate concentration: 1.4 mg/mL
[1]; Day 1, approx. 2% ethanol
  Arg34-GLP-1[7-37] concentration in loading solution: 1.7 mg/mL
[1]; Day 2, Source 30S eluate
  Arg34-GLP-1[7-37] eluate concentration: 1.4 mg/mL
[1]; Day 2, approx. 2% ethanol
  Arg34-GLP-1[7-37] concentration in loading solution: 1.7 mg/mL
[1]; Day 3, Source 30S eluate
  Arg34-GLP-1[7-37] eluate concentration: 1.3 mg/mL
[1]; Day 5, approx. 2% ethanol
  Arg34-GLP-1[7-37] concentration in loading solution: 1.7 mg/mL
[1]; loading solution and eluate with 10 mM TRIS
  Gelation/fibrillation/aggregation: not observed
[2]; eluate, 200 mM Glycine pH 9.5
  stability at room temperature (fibrillation): less than one day
[2]; loading solution, 20 mM glycine, approx. 2% ethanol, pH approx. 3.3
  stability at room temperature (fibrillation): less than one day
[3]; 60 runs, Source 30S, 10 mM TRIS loading solution, eluate adjusted to pH 8.0 with tris buffer
  fibrillation in loading solution and eluate: no fibrillation was observed
[3]; [7]
  change in pressure on column: no change in pressure was observed
  fibrillation on the column: no fibrillation had occurred on the column
[4]
  change in pressure on column: without change in pressure
  proteins or aggregated/fibrillated proteins on the column material: no observation of proteins or aggregated/fibrillated proteins

## N^ε-hexadecanoyl-γ-glutamyl-Lys26-Arg34-GLP-1[7-37]
[5]; 60 runs, Source 30Q and RP-HPLC, 10-20 mM tris
  fibrillation in loading solutions and eluates: no fibrillation was observed
[5]; [8]
  change in pressure on column: no change in pressure was observed
  fibrillation on the column: no fibrillation had occurred on the column
[6]; RP-HPLC column 100 Å C-18 after 49 runs, 125 mM NaCl, approx. 45% ethanol, pH 6.9
  aggregated/fibrillated proteins on the column material: no observations of aggregated/fibrillated proteins
[6]; [9]
  aggregated/fibrillated proteins on the column material: no observation of aggregated/fibrillated proteins
  change in pressure on column: without change in pressure
